The nature of this series: self-splicing fitness, log relative to wild type (ln ratio); higher = more splicing; Tetrahymena group I intron in knt gene, E. coli kanamycin selection, DiMSum; sequences stand for … in CUCUCU…GGAGGGAAAAGUUAUCAGGCAUGCACCUGGUAGCUAGUCUUUAAACCAAUAGAUUGCAUCGGUUUAAAAGGCAAGACCGUCAAAUUGCGGGAAAGGGGUCAACAGCCGUUCAGUACCAAGUCUCAGGGGAAACUUUGAGAUGGCCUUGCAAAGGGUAUGGUAAUAAGCUGACGGACAUGGUCCUAACCACGCAGCCAAGUCCUAAGUCAACAGAUCUUCUGUUGAUAUGGAUGCAGUUCACAGACUAAAUGUCGGUCGGGGAAGAUGUAUUCUUCUCAUAAGAUAUAGUCGGACCUCUCCUUAAUGGGAGCUAGCGGAUGAAGUGAUGCAACACUGGAGCCGCUGGGAACUAAUUUGUAUGCGAAAGUAUAUUGAUUAGUUUUGGAGUACUCGUGGUCG
The essentials: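 Library with all eight P1ex-region intron nucleotides randomised, intron inside the knt kanamycin-resistance gene on pET-22b(+), in E. coli BL21(DE3). Cells grew overnight at 37°C or 30°C on LB agar with or without 25 μg/mL kanamycin (plus 100 μg/mL carbenicillin, 50 μM IPTG, 0.2% rhamnose), in six replicate transformations. Pooled colonies were amplicon-sequenced on Illumina HiSeq 2500. DiMSum fitness is the error-weighted combination of wild-type-normalised replicate fold changes, kanamycin versus none.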

± gives the uncertainty stated by the source.

The record followed here is the supplement of paper PMC7877785.

For CACGAGCAAUAUUACGUGUU, the “self-splicing fitness (ln)” value (30 °C) is -2.98 ± 0.1 and the “self-splicing fitness (ln)” value (37 °C) is -2.26 ± 0.15.

Regarding UCAAAGCAAUAUUACGAGCG, the “self-splicing fitness (ln)” value reads like this: (30 °C) -0.712 ± 0.088; (37 °C) -0.172 ± 0.11.

As to UCGCAGCAAUAUUACGAUAC, the “self-splicing fitness (ln)” value (30 °C) is -3.52 ± 0.46 and the “self-splicing fitness (ln)” value (37 °C) was -2.76 ± 0.34.

CUGUAGCAAUAUUACGGACU: the “self-splicing fitness (ln)” value was -3.43 ± 0.3 (30 °C) and -1.83 ± 0.24 (37 °C).

GGACAGCAAUAUUACGAACU: the “self-splicing fitness (ln)” value reads like this: (30 °C) -0.198 ± 0.08; (37 °C) 0.442 ± 0.083.

On to CGGUAGCAAUAUUACGAUGC, for which the “self-splicing fitness (ln)” value reads like this: (30 °C) -3.7 ± 0.2; (37 °C) -0.598 ± 0.13.

Take UCAUAGCAAUAUUACGAUAA: the “self-splicing fitness (ln)” value reads like this: (30 °C) -1.71 ± 0.21; (37 °C) -0.636 ± 0.19.

Regarding GUACAGCAAUAUUACGACCA, the “self-splicing fitness (ln)” value is, setting by setting: (30 °C) -1.85 ± 0.25; (37 °C) -0.829 ± 0.33.

As for CGAUAGCAAUAUUACGUUCU, the “self-splicing fitness (ln)” value by setting is: (30 °C) -1.15 ± 0.07; (37 °C) -0.384 ± 0.094.

Regarding GACAAGCAAUAUUACGAGAU, the “self-splicing fitness (ln)” value by setting is: (30 °C) -3.73 ± 0.23; (37 °C) -2.78 ± 0.23.

For GGUUAGCAAUAUUACGGGCA, the “self-splicing fitness (ln)” value runs as follows: (30 °C) -0.0835 ± 0.083; (37 °C) -0.182 ± 0.079.

With AAGCAGCAAUAUUACGAAAG, the “self-splicing fitness (ln)” value was -3.93 ± 0.23 (30 °C) and -2.29 ± 0.17 (37 °C).

In the case of GUCCAGCAAUAUUACGAGCG, the “self-splicing fitness (ln)” value (30 °C) is -2.31 ± 0.14 and the “self-splicing fitness (ln)” value (37 °C) was -0.864 ± 0.15.

CGCAAGCAAUAUUACGUACA: the “self-splicing fitness (ln)” value is -2.03 ± 0.11 (30 °C) and -0.56 ± 0.085 (37 °C).

In the case of AGUCAGCAAUAUUACGGAAC, the “self-splicing fitness (ln)” value runs as follows: (30 °C) -2.87 ± 0.15; (37 °C) -1.89 ± 0.15.

Regarding CUAAAGCAAUAUUACGCUUG, the “self-splicing fitness (ln)” value was -2.8 ± 0.15 (30 °C) and -1.58 ± 0.17 (37 °C).

Consider AAUUAGCAAUAUUACGCCAA, for which the “self-splicing fitness (ln)” value runs as follows: (30 °C) -2.13 ± 0.18; (37 °C) -1.25 ± 0.2.

On to CAAAAGCAAUAUUACGAUGG, for which the “self-splicing fitness (ln)” value reads like this: (30 °C) -0.431 ± 0.062; (37 °C) -0.139 ± 0.079.

As to GAAUAGCAAUAUUACGCGUG, the “self-splicing fitness (ln)” value is, setting by setting: (30 °C) -1.01 ± 0.075; (37 °C) -0.747 ± 0.094.

Turning to GUCCAGCAAUAUUACGAUGU, the “self-splicing fitness (ln)” value runs as follows: (30 °C) -0.9 ± 0.07; (37 °C) -0.235 ± 0.083.

AGGUAGCAAUAUUACGCAGC: the “self-splicing fitness (ln)” value reads like this: (30 °C) -3.808 ± 0.038; (37 °C) -2.67 ± 0.046.

For the sequence GAAAAGCAAUAUUACGAACG, the “self-splicing fitness (ln)” value by setting is: (30 °C) -0.893 ± 0.083; (37 °C) -0.364 ± 0.11.

Turning to UGUCAGCAAUAUUACGUAUG, the “self-splicing fitness (ln)” value was -0.239 ± 0.063 (30 °C) and 0.657 ± 0.086 (37 °C).

Regarding UGAUAGCAAUAUUACGACAG, the “self-splicing fitness (ln)” value is -1.41 ± 0.11 (30 °C) and -1.59 ± 0.1 (37 °C).

On to UCAGAGCAAUAUUACGGCGG, for which the “self-splicing fitness (ln)” value was -1.41 ± 0.13 (30 °C) and 0.0537 ± 0.13 (37 °C).

Turning to CGUCAGCAAUAUUACGAUGG, the “self-splicing fitness (ln)” value runs as follows: (30 °C) -1.27 ± 0.054; (37 °C) -0.0354 ± 0.084.

For GCACAGCAAUAUUACGCAUA, the “self-splicing fitness (ln)” value (30 °C) is -0.997 ± 0.088 and the “self-splicing fitness (ln)” value (37 °C) is -0.269 ± 0.085.

For CCCAAGCAAUAUUACGUGUU, the “self-splicing fitness (ln)” value (30 °C) was -4.07 ± 0.18 and the “self-splicing fitness (ln)” value (37 °C) is -2.46 ± 0.13.

For the sequence CAAAAGCAAUAUUACGACCG, the “self-splicing fitness (ln)” value by setting is: (30 °C) -0.0202 ± 0.1; (37 °C) -0.497 ± 0.13.

On to UGAGAGCAAUAUUACGUGGG, for which the “self-splicing fitness (ln)” value is, setting by setting: (30 °C) -2.83 ± 0.29; (37 °C) -1.38 ± 0.2.

As to AAGAAGCAAUAUUACGGCCU, the “self-splicing fitness (ln)” value by setting is: (30 °C) -0.278 ± 0.11; (37 °C) -0.574 ± 0.14.

Take CUCUAGCAAUAUUACGCACU: the “self-splicing fitness (ln)” value was -2.77 ± 0.31 (30 °C) and -3.07 ± 0.25 (37 °C).

As to AUCGAGCAAUAUUACGGAAA, under “37 °C”, the “self-splicing fitness (ln)” value is -2.64 ± 0.34.

For the sequence CGAGAGCAAUAUUACGGACC, the “self-splicing fitness (ln)” value (30 °C) is -3.73 ± 0.44.

Take AUGAAGCAAUAUUACGCUGA: the “self-splicing fitness (ln)” value is, setting by setting: (30 °C) -1.2 ± 0.13; (37 °C) -1.24 ± 0.17.

Regarding AUUAAGCAAUAUUACGGACG, the “self-splicing fitness (ln)” value was -1.18 ± 0.12 (30 °C) and -0.721 ± 0.14 (37 °C).

On to GCACAGCAAUAUUACGUCGU, for which the “self-splicing fitness (ln)” value by setting is: (30 °C) -0.704 ± 0.083; (37 °C) 0.241 ± 0.091.

Take GUGGAGCAAUAUUACGGUAA: the “self-splicing fitness (ln)” value (30 °C) is -2.05 ± 0.11 and the “self-splicing fitness (ln)” value (37 °C) is -2.95 ± 0.19.
